T1: MBP-GlnR (Mycobacterium smegmatis (SMR5?)) (UniProt A0R4C4)
T1 sequence: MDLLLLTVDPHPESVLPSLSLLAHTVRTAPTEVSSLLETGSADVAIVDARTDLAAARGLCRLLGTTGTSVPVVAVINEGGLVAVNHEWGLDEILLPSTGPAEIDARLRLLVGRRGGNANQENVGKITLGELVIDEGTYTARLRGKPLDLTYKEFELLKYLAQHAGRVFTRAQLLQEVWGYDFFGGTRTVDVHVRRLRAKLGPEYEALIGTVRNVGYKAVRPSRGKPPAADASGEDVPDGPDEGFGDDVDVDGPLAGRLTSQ

T2: MBP-GlnR (Mycobacterium smegmatis, UniProt A0R4C4 1-261)
T2 sequence: T1 sequence

B1: amtB fragment 6 (dsDNA)
DNA 1: TGCGTTCACTTTCCGGAAACGCAACGGCAGCACCGGCGAAACGCCGGCAA
DNA 2: TTGCCGGCGTTTCGCCGGTGCTGCCGTTGCGTTTCCGGAAAGTGAACGCA
B2: amtB fragment 6.1 (dsDNA)
DNA 1: TGCGTTCACTTTCCGGAAACGCAAC
DNA 2: GTTGCGTTTCCGGAAAGTGAACGCA

Legend:
[1] = molecular target: T1, MBP-GlnR (Mycobacterium smegmatis (SMR5?)); assay: EMSA; settings: GlnR: DIG Gel Shift Kit (Roche) buffer, 6% native PAGE, 0.5x TBE; AmtR: 20 mM Tris-HCl pH 7.9, 25 mM KCl, 1 mM DTT, 5 mM MgCl2, 0.5 mg/ml BSA, 5% glycerol …
MBP-GlnR [2] = molecular target: T2, MBP-GlnR; assay: competition; 1000-fold excess vs 220 bp amtB probe; GlnR: DIG Gel Shift Kit (Roche) buffer, 6% native PAGE, 0.5x TBE; AmtR: 20 mM Tris-HCl pH 7.9, 25 mM KCl, 1 mM DTT, 5 mM MgCl2, 0.5 mg/ml BSA, 5% glycerol, 2 ug sperm DNA, 25 C 30 min; settings: protein: recombinant; (pMal-c2-glnR); chain copies: 2; label: digoxigenin when used as probe
MBP-GlnR [3] = molecular target: T2, MBP-GlnR; assay: competition; 1000-fold excess vs fragment 6 probe; GlnR: DIG Gel Shift Kit (Roche) buffer, 6% native PAGE, 0.5x TBE; AmtR: 20 mM Tris-HCl pH 7.9, 25 mM KCl, 1 mM DTT, 5 mM MgCl2, 0.5 mg/ml BSA, 5% glycerol, 2 ug sperm DNA, 25 C 30 min; settings: protein: recombinant; (pMal-c2-glnR); chain copies: 2

Molecule | binding [1] | further results
GTGTGAACCTCCTTGGGAAGTGCGCCGACGGATCGGCCTCCCGATGAGATTCTGTTGCCGGCGTTTCGCCGGTGCTGCCGTTGCGTTTCCGGAAAGTGAACGCAATCCCGATCACTGTTACGCTCATGTTTCCCGCCGACAAAGCACAGGTCGTTGCACAGCCAACGCCGGCTGTAACGCCCCGCAAACACTCCCGCTGCGGCGCCGCGAACCCGACGTC (double strand) [amtB upstream] | binds | –
TGAGGGTCCTAATCCGTCCCTGAACAGGGAAATTACCGGACCATTTTTTGGTCTGGTCTGAGAATGTCGCCGACGACGTTGTGCTGCGACGCTGGCAATTGTTACCGCGCCCAGATTCGTTGGTCAACTTGGAATTACCTGTACATATGCGGGTTTGTTGCAAACATGTTTCGAAGCTGGGAGCCATGCAACGGCAGCGTAAAAATTCTCGATTTGGTCTGCTCTGGTTCGGCTTTTGGTCCACACTCTTCGACATGCCGGGACTTCCAGCTGACCACGAACTGTTCGCGCGCGCCGCAC (double strand) [msmeg_0781 upstream] | binds | –
CCGCGACGTCGACCGCGCGCCCGGTCACCGGGCCCGGACCCGGCAAGGTGGTCGTGGTGTCGACGACAGGGGACCCGGCGACGCCGTACCAGGCCGGTGTGGACCTCGCCCGGCAAATGGGCGCGGCCCTGATCAGTTTCGACGGTGCGCAGCACACCGTGGTGTTCAACGGAGATGCCTGCGTCGACACCGCGGTGTTGCGCTTCCTGACCGATCTGCAGTCGCCCCCGGGCAACCTTGCCTGCTAGCTCTTGCACCCCCGTAACACAGATTTAACAGCCGGTGCATACGCTGCGGAGC (double strand) [glnA2 upstream] | binds | –
AACGGTGTGCTTCCTCCGCTGTAGGTGGATCACCGCGTGAAGCGGGTGACCGGTGCAGGGTCGGCGCAACTTACTGCGCTTGGAAAATGCTCGCGCAGGAACGTTTCGGTGGATCCCGTCGGCAATGTCGGTGACGTTAACTCTGCACGGCCCCGCGTTACGTTGTGGTGACCTGACGCAACGGATTTCGTTGTGTGTCCGGTAGGCCCGCGTGACGACGAACCCGGCCGGCCGATGTTCGGCCGACCGGGTCGTCACGAGGTCACGGCTA (double strand) [msmeg_2526 upstream] | binds | –
B1 | – | binding result (MBP-GlnR [2]): binds
B2 | – | binding result (MBP-GlnR [3]): binds

Source: PMC4222082, “Nitrogen starvation-induced transcriptome alterations and influence of transcription regulator mutants in Mycobacterium smegmatis”
